Measured values as given in US20260176319A1 (KALLYOPE, published 2026).
Starred links: 1 amine or outer side, 2 acyl side, 3 side chain; linkers in the order of their positions; H or OH if unused. Non-standard residues stand in square brackets, D forms with d. Groups on a side chain read outwards from the residue. *: point of attachment. Trp(6-Me) = Cc1ccc2c(C[C@H](N)C(=O)O)c[nH]c2c1; Trp(7-F) = N[C@@H](Cc1c[nH]c2c(F)cccc12)C(=O)O; Trp(7-Me) = Cc1cccc2c(C[C@H](N)C(=O)O)c[nH]c12; d(γGlu) = O=C(O)[C@@H](CCC(=O)[*:2])N[*:1]; C18 diacid = O=C(O)CCCCCCCCCCCCCCCCC(=O)*; Palmitoyl = CCCCCCCCCCCCCCCC(=O)*; 2Pal = N[C@@H](Cc1ccccn1)C(=O)O; 3Pal = N[C@@H](Cc1cccnc1)C(=O)O; 4Pal = N[C@@H](Cc1ccncc1)C(=O)O; Nle = CCCC[C@H](N)C(=O)O; AEEA = NCCOCCOCC(=O)O; Aib = CC(C)(N)C(=O)O; Sar = CNCC(=O)O

Biological target: human GRP receptor (human, UniProt P30550 1-384)
Sequence (P30550 whole entry): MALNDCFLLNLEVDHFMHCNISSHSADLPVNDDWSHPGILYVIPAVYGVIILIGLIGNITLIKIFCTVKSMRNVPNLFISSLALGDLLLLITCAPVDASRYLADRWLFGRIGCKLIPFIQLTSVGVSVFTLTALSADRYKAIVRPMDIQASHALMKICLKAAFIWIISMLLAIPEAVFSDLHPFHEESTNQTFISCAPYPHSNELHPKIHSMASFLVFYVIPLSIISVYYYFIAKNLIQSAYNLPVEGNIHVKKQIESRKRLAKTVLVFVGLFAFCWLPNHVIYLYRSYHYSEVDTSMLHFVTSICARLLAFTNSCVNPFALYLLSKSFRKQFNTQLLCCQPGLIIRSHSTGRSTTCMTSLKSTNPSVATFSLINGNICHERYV
Assay: cell-based or functional assay

Binder | hIP1 GRPR EC50
{C18 diacid}-[d(γGlu)][AEEA][AEEA][AEEA][AEEA]GNHWAV[dA]HL[Nle]-NH2 (SMILES CCCC[C@H](NC(=O)[C@H](CC(C)C)NC(=O)[C@H](Cc1c[nH]cn1)NC(=O)[C@@H](C)NC(=O)[C@@H](NC(=O)[C@H](C)NC(=O)[C@H](Cc1c[nH]c2ccccc12)NC(=O)[C@H](Cc1c[nH]cn1)NC(=O)[C@H](CC(N)=O)NC(=O)CNC(=O)COCCOCCNC(=O)COCCOCCNC(=O)COCCOCCNC(=O)COCCOCCNC(=O)CC[C@@H](NC(=O)CCCCCCCCCCCCCCCCC(=O)O)C(=O)O)C(C)C)C(N)=O) [Peptide 53] | 42 nM
EXXGNHWAVXHLK (Palmitoyl-D-γGlu-OEG-OEG-Gly-Asn-His-Trp-Ala-Val-D-Ala-His-Leu-Lys(Me)3-NH2) [Peptide 49] | 4040 nM
{C18 diacid}-[d(γGlu)][AEEA][AEEA]GRHWAV[dA]HL[Nle]-NH2 (SMILES CCCC[C@H](NC(=O)[C@H](CC(C)C)NC(=O)[C@H](Cc1c[nH]cn1)NC(=O)[C@@H](C)NC(=O)[C@@H](NC(=O)[C@H](C)NC(=O)[C@H](Cc1c[nH]c2ccccc12)NC(=O)[C@H](Cc1c[nH]cn1)NC(=O)[C@H](CCCNC(=N)N)NC(=O)CNC(=O)COCCOCCNC(=O)COCCOCCNC(=O)CC[C@@H](NC(=O)CCCCCCCCCCCCCCCCC(=O)O)C(=O)O)C(C)C)C(N)=O) [Peptide 61] | 8.25 nM
{C18 diacid}-[d(γGlu)][AEEA][AEEA]GN[3Pal]WAV[dA]HL[Nle]-NH2 (SMILES CCCC[C@H](NC(=O)[C@H](CC(C)C)NC(=O)[C@H](Cc1c[nH]cn1)NC(=O)[C@@H](C)NC(=O)[C@@H](NC(=O)[C@H](C)NC(=O)[C@H](Cc1c[nH]c2ccccc12)NC(=O)[C@H](Cc1cccnc1)NC(=O)[C@H](CC(N)=O)NC(=O)CNC(=O)COCCOCCNC(=O)COCCOCCNC(=O)CC[C@@H](NC(=O)CCCCCCCCCCCCCCCCC(=O)O)C(=O)O)C(C)C)C(N)=O) [Peptide 64] | 49.4 nM
Palmitoyl-[d(γGlu)][AEEA][AEEA]GNH[Trp(7-F)]AV[dA]HL[Nle]-NH2 (SMILES CCCCCCCCCCCCCCCC(=O)N[C@H](CCC(=O)NCCOCCOCC(=O)NCCOCCOCC(=O)NCC(=O)N[C@@H](CC(N)=O)C(=O)N[C@@H](Cc1c[nH]cn1)C(=O)N[C@@H](Cc1c[nH]c2c(F)cccc12)C(=O)N[C@@H](C)C(=O)N[C@H](C(=O)N[C@H](C)C(=O)N[C@@H](Cc1c[nH]cn1)C(=O)N[C@@H](CC(C)C)C(=O)N[C@@H](CCCC)C(N)=O)C(C)C)C(=O)O) [Peptide 56] | 1.97 nM
{C18 diacid}-[d(γGlu)][AEEA][AEEA]GNHWAV[dA]FL[Nle]-NH2 (SMILES CCCC[C@H](NC(=O)[C@H](CC(C)C)NC(=O)[C@H](Cc1ccccc1)NC(=O)[C@@H](C)NC(=O)[C@@H](NC(=O)[C@H](C)NC(=O)[C@H](Cc1c[nH]c2ccccc12)NC(=O)[C@H](Cc1c[nH]cn1)NC(=O)[C@H](CC(N)=O)NC(=O)CNC(=O)COCCOCCNC(=O)COCCOCCNC(=O)CC[C@@H](NC(=O)CCCCCCCCCCCCCCCCC(=O)O)C(=O)O)C(C)C)C(N)=O) [Peptide 62] | 83.7 nM
Palmitoyl-[d(γGlu)][AEEA][AEEA][AEEA][AEEA]GNH[Trp(7-Me)]AV[dA]HL[Nle]-NH2 (SMILES CCCCCCCCCCCCCCCC(=O)N[C@H](CCC(=O)NCCOCCOCC(=O)NCCOCCOCC(=O)NCCOCCOCC(=O)NCCOCCOCC(=O)NCC(=O)N[C@@H](CC(N)=O)C(=O)N[C@@H](Cc1c[nH]cn1)C(=O)N[C@@H](Cc1c[nH]c2c(C)cccc12)C(=O)N[C@@H](C)C(=O)N[C@H](C(=O)N[C@H](C)C(=O)N[C@@H](Cc1c[nH]cn1)C(=O)N[C@@H](CC(C)C)C(=O)N[C@@H](CCCC)C(N)=O)C(C)C)C(=O)O) [Peptide 59] | 2.01 nM
Palmitoyl-[d(γGlu)][AEEA][AEEA][AEEA][AEEA]GNHWAV[dA]HL[Nle]-NH2 (SMILES CCCCCCCCCCCCCCCC(=O)N[C@H](CCC(=O)NCCOCCOCC(=O)NCCOCCOCC(=O)NCCOCCOCC(=O)NCCOCCOCC(=O)NCC(=O)N[C@@H](CC(N)=O)C(=O)N[C@@H](Cc1c[nH]cn1)C(=O)N[C@@H](Cc1c[nH]c2ccccc12)C(=O)N[C@@H](C)C(=O)N[C@H](C(=O)N[C@H](C)C(=O)N[C@@H](Cc1c[nH]cn1)C(=O)N[C@@H](CC(C)C)C(=O)N[C@@H](CCCC)C(N)=O)C(C)C)C(=O)O) [Peptide 54] | 3.12 nM
{C18 diacid}-[d(γGlu)][AEEA][AEEA]GK(Ac)HWAV[dA]HL[Nle]-NH2 (SMILES CCCC[C@H](NC(=O)[C@H](CC(C)C)NC(=O)[C@H](Cc1c[nH]cn1)NC(=O)[C@@H](C)NC(=O)[C@@H](NC(=O)[C@H](C)NC(=O)[C@H](Cc1c[nH]c2ccccc12)NC(=O)[C@H](Cc1c[nH]cn1)NC(=O)[C@H](CCCCNC(C)=O)NC(=O)CNC(=O)COCCOCCNC(=O)COCCOCCNC(=O)CC[C@@H](NC(=O)CCCCCCCCCCCCCCCCC(=O)O)C(=O)O)C(C)C)C(N)=O) [Peptide 65] | 6.05 nM
Palmitoyl-[d(γGlu)][AEEA][AEEA]GN[4Pal]WAV[dA]HL[Nle]-NH2 (SMILES CCCCCCCCCCCCCCCC(=O)N[C@H](CCC(=O)NCCOCCOCC(=O)NCCOCCOCC(=O)NCC(=O)N[C@@H](CC(N)=O)C(=O)N[C@@H](Cc1ccncc1)C(=O)N[C@@H](Cc1c[nH]c2ccccc12)C(=O)N[C@@H](C)C(=O)N[C@H](C(=O)N[C@H](C)C(=O)N[C@@H](Cc1c[nH]cn1)C(=O)N[C@@H](CC(C)C)C(=O)N[C@@H](CCCC)C(N)=O)C(C)C)C(=O)O) [Peptide 52] | 1.75 nM
Palmitoyl-[d(γGlu)][AEEA][AEEA]GNH[Trp(6-Me)]AV[dA]HL[Nle]-NH2 (SMILES CCCCCCCCCCCCCCCC(=O)N[C@H](CCC(=O)NCCOCCOCC(=O)NCCOCCOCC(=O)NCC(=O)N[C@@H](CC(N)=O)C(=O)N[C@@H](Cc1c[nH]cn1)C(=O)N[C@@H](Cc1c[nH]c2cc(C)ccc12)C(=O)N[C@@H](C)C(=O)N[C@H](C(=O)N[C@H](C)C(=O)N[C@@H](Cc1c[nH]cn1)C(=O)N[C@@H](CC(C)C)C(=O)N[C@@H](CCCC)C(N)=O)C(C)C)C(=O)O) [Peptide 63] | 4.75 nM
Palmitoyl-[d(γGlu)][AEEA][AEEA]GNHWAV[dA]HL[Nle][Sar]-NH2 (SMILES CCCCCCCCCCCCCCCC(=O)N[C@H](CCC(=O)NCCOCCOCC(=O)NCCOCCOCC(=O)NCC(=O)N[C@@H](CC(N)=O)C(=O)N[C@@H](Cc1c[nH]cn1)C(=O)N[C@@H](Cc1c[nH]c2ccccc12)C(=O)N[C@@H](C)C(=O)N[C@H](C(=O)N[C@H](C)C(=O)N[C@@H](Cc1c[nH]cn1)C(=O)N[C@@H](CC(C)C)C(=O)N[C@@H](CCCC)C(=O)N(C)CC(N)=O)C(C)C)C(=O)O) [Peptide 48] | 1.1 nM
Palmitoyl-[d(γGlu)][AEEA][AEEA]GN[2Pal]WAV[dA]HL[Nle]-NH2 (SMILES CCCCCCCCCCCCCCCC(=O)N[C@H](CCC(=O)NCCOCCOCC(=O)NCCOCCOCC(=O)NCC(=O)N[C@@H](CC(N)=O)C(=O)N[C@@H](Cc1ccccn1)C(=O)N[C@@H](Cc1c[nH]c2ccccc12)C(=O)N[C@@H](C)C(=O)N[C@H](C(=O)N[C@H](C)C(=O)N[C@@H](Cc1c[nH]cn1)C(=O)N[C@@H](CC(C)C)C(=O)N[C@@H](CCCC)C(N)=O)C(C)C)C(=O)O) [Peptide 51] | 0.95 nM
{C18 diacid}-[d(γGlu)][AEEA][AEEA]GKHWAV[dA]HL[Nle]-NH2 (SMILES CCCC[C@H](NC(=O)[C@H](CC(C)C)NC(=O)[C@H](Cc1c[nH]cn1)NC(=O)[C@@H](C)NC(=O)[C@@H](NC(=O)[C@H](C)NC(=O)[C@H](Cc1c[nH]c2ccccc12)NC(=O)[C@H](Cc1c[nH]cn1)NC(=O)[C@H](CCCCN)NC(=O)CNC(=O)COCCOCCNC(=O)COCCOCCNC(=O)CC[C@@H](NC(=O)CCCCCCCCCCCCCCCCC(=O)O)C(=O)O)C(C)C)C(N)=O) [Peptide 60] | 7.27 nM
Palmitoyl-[d(γGlu)][AEEA][AEEA]GK([AEEA-AEEA-d(γGlu)-Palmitoyl])HWAV[dA]HL[Nle]-NH2 (SMILES CCCCCCCCCCCCCCCC(=O)N[C@H](CCC(=O)NCCOCCOCC(=O)NCCOCCOCC(=O)NCCCC[C@H](NC(=O)CNC(=O)COCCOCCNC(=O)COCCOCCNC(=O)CC[C@@H](NC(=O)CCCCCCCCCCCCCCC)C(=O)O)C(=O)N[C@@H](Cc1c[nH]cn1)C(=O)N[C@@H](Cc1c[nH]c2ccccc12)C(=O)N[C@@H](C)C(=O)N[C@H](C(=O)N[C@H](C)C(=O)N[C@@H](Cc1c[nH]cn1)C(=O)N[C@@H](CC(C)C)C(=O)N[C@@H](CCCC)C(N)=O)C(C)C)C(=O)O) [Peptide 57] | 72.8 nM
Palmitoyl-[d(γGlu)][AEEA][AEEA]GN[3Pal]WAV[Aib]HL[Nle]-NH2 (SMILES CCCCCCCCCCCCCCCC(=O)N[C@H](CCC(=O)NCCOCCOCC(=O)NCCOCCOCC(=O)NCC(=O)N[C@@H](CC(N)=O)C(=O)N[C@@H](Cc1cccnc1)C(=O)N[C@@H](Cc1c[nH]c2ccccc12)C(=O)N[C@@H](C)C(=O)N[C@H](C(=O)NC(C)(C)C(=O)N[C@@H](Cc1c[nH]cn1)C(=O)N[C@@H](CC(C)C)C(=O)N[C@@H](CCCC)C(N)=O)C(C)C)C(=O)O) [Peptide 3] | 8.7 nM
Palmitoyl-[d(γGlu)][AEEA][AEEA][AEEA][AEEA]GN[3Pal][Trp(7-Me)]AV[dA]HL[Nle]-NH2 (SMILES CCCCCCCCCCCCCCCC(=O)N[C@H](CCC(=O)NCCOCCOCC(=O)NCCOCCOCC(=O)NCCOCCOCC(=O)NCCOCCOCC(=O)NCC(=O)N[C@@H](CC(N)=O)C(=O)N[C@@H](Cc1cccnc1)C(=O)N[C@@H](Cc1c[nH]c2c(C)cccc12)C(=O)N[C@@H](C)C(=O)N[C@H](C(=O)N[C@H](C)C(=O)N[C@@H](Cc1c[nH]cn1)C(=O)N[C@@H](CC(C)C)C(=O)N[C@@H](CCCC)C(N)=O)C(C)C)C(=O)O) [Peptide 58] | 4.22 nM
